The series is described as follows: yeast display, Sf9 membrane polyspecificity reagent, FACS + sequencing; frameworks hold sequencing errors. The gist of the method: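 Polyreactivity labels are assigned by the sorting gate from which each nanobody was recovered. The gates were low and high (top ~1%), set on anti-HA fluorescence for expression and streptavidin fluorescence for reagent binding. Before sorting, galactose-induced (36–48 hours) yeast display cells were stained for 1 hour at 4 °C with 10% biotinylated, detergent-solubilized Sf9 membrane reagent.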
For “QVQLVESGGGLVQAGGSLRLSCAASGRIFTKYAMGWYRQAPGKERELVAAISWSGGRTYYADSVKGRFTISRDNAKNTVYLQMNSLKPEDTAVYYCAAESYKTATLGEDYWGQGTQVTVSS”, the “polyreactivity (PSR sort gate)” value is on record as “high polyreactivity”.

“QVQLVESGGGLVQAGGSLRLSCAASGRIFTNAMGWYTQAPGKQRELVAAISGGSNTYYADSVKGRFTISRDNANNTVYLQMNSLKPEDTAVYYCNTDDQWWDGGYDYWGQGTQVTVSS”: the “polyreactivity (PSR sort gate)” value is recorded as “low polyreactivity”.

Consider “QVQLVESGGGLVQAGGSLRLSCAASGRIFTPYAMGWYRQAPGKEREFVATISFRGDSTYYADSVKGRFTISRDNAKNTVYLQMNSLKPEDTAVYYCNAATNRRTSDYWGQGTQVTVSS”, for which the “polyreactivity (PSR sort gate)” value is given as “high polyreactivity”.

For “QVQLVESGGGLVQAGGSLRLSCAASGRIFTQYTMGWYRQAPGKERELVAAINYSGGRTNYADSVKGRFTISRDIAKNTVYLQMNSLKPEDTAVYYCAAGYRRATYGYWGQGTQVTVSS”, the “polyreactivity (PSR sort gate)” value is recorded as “high polyreactivity”.

Consider “QVQLVESGGGLVQAGGSLRLSCAASGRIFTRNAMGWYRQAPGKERELVAAIRWSGDSTYYADSVKGRFTISRDNAKNTVYLQMNSLKPEDTAVYYCAADRQRSHRVGTKGHRVGYWGQGTQVTVSS”, for which the “polyreactivity (PSR sort gate)” value is reported as “high polyreactivity”.

Take “QVQLVESGGGLVQAGGSLRLSCAASGRIFTRNTMGWYRQAPGKERELVAAISSGASTYYADSVKGRFTISRDTAKNTVYLQMNSLKPEDTAVYYCATRGYARYWGLGTQVTVSS”: the “polyreactivity (PSR sort gate)” value was “low polyreactivity”.

Consider “QVQLVESGGGLVQAGGSLRLSCAASGRIFTRYAMGSYRQAPGKETEFVAAISGNGGSTYADSVKGRFTISRDNAKNTVYLQMNSLKPEDTAVYYCAAVPYGYGLASDSIFDYWGQGTQVTVSS”, for which the “polyreactivity (PSR sort gate)” value is “high polyreactivity”.

“QVQLVESGGGLVQAGGSLRLSCAASGRIFTRYAMGWYRQAPGKERELVAAITSGGSTYYADSVKGRFSISRDNAKNTVYLQMNSLKPEDTAVYYCAAVVISSGVRYDYWGQGTQVTVSS”: the “polyreactivity (PSR sort gate)” value is listed as “high polyreactivity”.

With “QVQLVESGGGLVQAGGSLRLSCAASGRIFTRYGMGWYRQAPGKEREFVAGISWSGGSTFYADSVKGRFTISRDNAKNTVYLQMHSLKPEDTAVYYCAARLYLRRPYEYWGQGTQVTVSS”, the “polyreactivity (PSR sort gate)” value is reported as “high polyreactivity”.

As to “QVQLVESGGGLVQAGGSLRLSCAASGRIFTRYTMGWYRQAPGKERELVASITSSGSSTYYADSVKGRFTISRDNAKNTVYLQMNSLKPEDTAVYYCAARSRLRYLYDYWGQGTQVTVSS”, the “polyreactivity (PSR sort gate)” value is reported as “high polyreactivity”.

Regarding “QVQLVESGGGLVQAGGSLRLSCAASGRIFTSNTMGWYRQAPGKESELVAAITCSGGSMYYADSVKGRFTISRDNAKNTVYLQMNSLKPEDTEVYDCAADTLGYHYWYDYWGQGTQVTVSS”, the “polyreactivity (PSR sort gate)” value is given as “low polyreactivity”.

With “QVQLVESGGGLVQAGGSLRLSCAASGRIFTSYAMGWYRQAPGKERELVAAINRGGSTYYADSVKGRFTISRDNAKNTVYLQMNSLKPEDTAVYYCNATPPYNPEFDYWGQGTQVTVSS”, the “polyreactivity (PSR sort gate)” value was “low polyreactivity”.

As for “QVQLVESGGGLVQAGGSLRLSCAASGRIFTSYAMGWYRQAPGKERELVATITGSTASTYYADSVKGRFTISRDNAKNTVYLQMNSLKPEDTAVYYCAARSYSTYFRYYYWGQGTQVTVSS”, the “polyreactivity (PSR sort gate)” value is “high polyreactivity”.

Turning to “QVQLVESGGGLVQAGGSLRLSCAASGRIFTTNAMGWYRQAPGKERELVAAITSGASTKYADSVKGRFTISRDNAKNTVYLQMNCLKPEDTAVYYCNAKRGVNLRSNWYSHLRMDHWGQGTQVTVSS”, the “polyreactivity (PSR sort gate)” value is given as “low polyreactivity”.

“QVQLVESGGGLVQAGGSLRLSCAASGRIFTTYAKGWYRQAPGKERDLVAAISQNGGSTYYADSVKGRFTISRDNAKNTVYLPMNSLKPEDTAVYYCKAGAAGYYDYDYWGQGTQVTVSS”: the “polyreactivity (PSR sort gate)” value is reported as “low polyreactivity”.

As to “QVQLVESGGGLVQAGGSLRLSCAASGRIFTTYAMGWYRQAPGKERELVAAISQNGGSTYYADSVKGRFTISRDNAKNTVYLQMNSLKPEETAVYYCNAGPAGYYDYDYWGQGTQVTVSS”, the “polyreactivity (PSR sort gate)” value is “low polyreactivity”.

In the case of “QVQLVESGGGLVQAGGSLRLSCAASGRIFTTYAMGWYRQAPGKERELVAAISRSGGSTYYADSVKGRFTISRDNAKNTVYLQMNSLKPEDTAVYYCAARRRQEHVGRSSYARYDYWGQGTQVTVSS”, the “polyreactivity (PSR sort gate)” value was “high polyreactivity”.

“QVQLVESGGGLVQAGGSLRLSCAASGRIFTTYAMGWYRQAPGKERELVAAISRSGGSTYYADSVKGRFTISRDNAKNTVYLQMNSLKPEDTAVYYCAAVPTSNSFRSSFYYWGQGTQVTVSS”: the “polyreactivity (PSR sort gate)” value is listed as “high polyreactivity”.

For the sequence “QVQLVESGGGLVQAGGSLRLSCAASGRIFTTYAMGWYRQAPGKERELVAAITSGGGTYYADSVKGRFTISRDNAKNTVYLQMNSLKPEDTAVYYCNADYSADYYWYYYWGQGTQVTVSS”, the “polyreactivity (PSR sort gate)” value is on record as “low polyreactivity”.

On to “QVQLVESGGGLVQAGGSLRLSCAASGRIFTTYAMGWYRQAPGKERELVASISWRVGSTYYADSVKGRFTISRDNAKITVYLQMNSLKPEETAVYYCAAVGGNYHASGLRYYWGQGNQVTVSS”, for which the “polyreactivity (PSR sort gate)” value is “low polyreactivity”.

Regarding “QVQLVESGGGLVQAGGSLRLSCAASGRIFTVYAMGWYRQAPGKERELVAAISGRGGRTYYADSVKGRFTISRDNAKNTVYLQMNSLTPEDTAVYYCADYSYVRSSYEVEYDYWGQGTQVTVSS”, the “polyreactivity (PSR sort gate)” value was “low polyreactivity”.

Take “QVQLVESGGGLVQAGGSLRLSCAASGRIFTWYAMGWYRQAPGKERELVAAISSAGRTYYADSVKGRFTISRDNAKNTVYLQMNSLKPEDTAVYYCAKVSKYRHFYTFDYWGQGTQVTVSS”: the “polyreactivity (PSR sort gate)” value is reported as “high polyreactivity”.

Regarding “QVQLVESGGGLVQAGGSLRLSCAASGRIFTYYAMGWYRQAPGKERELVAAISSGGSTYYADSVKGRFTISRDNAKNTVYLQMNSLKPEDTAVYYCAAEPWYYPYLSPTYGYWGHGTQVTVSS”, the “polyreactivity (PSR sort gate)” value is listed as “low polyreactivity”.

On to “QVQLVESGGGLVQAGGSLRLSCAASGRIFTYYAMGWYRQAPGKERELVATITRRGGRTYYADSVKGRFTISRDNAKNTVYLQMNSLKPEDTAVYYCAVVPETRYYYWGQGTLVTVSS”, for which the “polyreactivity (PSR sort gate)” value is on record as “high polyreactivity”.

As for “QVQLVESGGGLVQAGGSLRLSCAASGRIFTYYTMGWYRQAPGKERELVAAISWSGGRTYYADSVKGRFTISRDNAKNTVYLQMNSLKPEDTAVFYCARLQDSRESPWRGYYWGQGTQVTVSS”, the “polyreactivity (PSR sort gate)” value is given as “high polyreactivity”.

Take “QVQLVESGGGLVQAGGSLRLSCAASGRIFTYYTMGWYRQAPGKERELVAAISYSGRTYYADSVKGRFTISRDNAKNTVYLQMNSLKPEDTAVYYCNAARPRGYGFDYWGQGTQVTVSS”: the “polyreactivity (PSR sort gate)” value was “high polyreactivity”.

Regarding “QVQLVESGGGLVQAGGSLRLSCAASGRIFTYYTMGWYRQAPGKERELVASITGGGGRTYYADSVKGRFTISRDNAKNTVYLQMNSLKPEDTAVYYCNARYPYPYWYTSYDYWGQGTQVTVSS”, the “polyreactivity (PSR sort gate)” value is on record as “high polyreactivity”.

In the case of “QVQLVESGGGLVQAGGSLRLSCAASGRIFVDYAMGWYRQAPGKERELVAAITRSGDRTYYADSVKGRFTISRDNAKNTVYLQMNSLKPEDTAVYYCATVYPGYVWGQGTQVTVSS”, the “polyreactivity (PSR sort gate)” value is on record as “low polyreactivity”.

With “QVQLVESGGGLVQAGGSLRLSCAASGRIFVGNAMVCYKQAPGKERELVAGITSRGGSTYYADSVKGRFTISRDNAKNTVYLQMNSLKQEDTAVYYCASYYRYPSWKFDYWGQGTQVTVSS”, the “polyreactivity (PSR sort gate)” value is “high polyreactivity”.

In the case of “QVQLVESGGGLVQAGGSLRLSCAASGRIFVGYALGWYRQAPGKERELVAAINRSGSSTYYADSVKGRFTISRDNAKNTDYLQMNSLKPEDTAVYYCNARSGNRYGPRYDYWGQGTQVTVSS”, the “polyreactivity (PSR sort gate)” value is “high polyreactivity”.

For the sequence “QVQLVESGGGLVQAGGSLRLSCAASGRIFVGYAMGWYRQAPGKERELVAAINRSGSSTYYADSVKGRFTISRDNAKNTVYLQTNSLKPEDTAVYYCAVRPLYDRRYTAVRRYDYWGQGTQVTVSS”, the “polyreactivity (PSR sort gate)” value is on record as “high polyreactivity”.

On to “QVQLVESGGGLVQAGGSLRLSCAASGRIFVGYAMGWYRQATGKERELVAAISARGGSTYYADSVKGRCTISRDNAKNTVYIQMNSLKPEDTAVYYCAADEASSRGYYDYDYWGQGTQVTVSS”, for which the “polyreactivity (PSR sort gate)” value was “low polyreactivity”.

As to “QVQLVESGGGLVQAGGSLRLSCAASGRIFVGYVMGWYRQAPGKERELVAAISSGGRTYYADSVKGRFTISRDNAKNTVYLQMNSLKPEDTAVYYCAAKRGGYNKEYDYWGQGTQVTVSS”, the “polyreactivity (PSR sort gate)” value was “high polyreactivity”.

For the sequence “QVQLVESGGGLVQAGGSLRLSCAASGRIFVHNAMGWYRQAPGKERELVAAIRSSGGRTYYADSVKGRFTISRDNAKKTVYLQMNSLKPEDTAVYYCAARFDTTRVGYWGQGTQVTVSS”, the “polyreactivity (PSR sort gate)” value is listed as “high polyreactivity”.

For “QVQLVESGGGLVQAGGSLRLSCAASGRIFVHNAMGWYSQARGKERELVAAINSGGSTNYADSVKGRFTISRDNANKTVYLQMNSLKPEDTAVYYCAAYWYPYPDAFEYYNYGYWGQGTQVTVSS”, the “polyreactivity (PSR sort gate)” value is listed as “high polyreactivity”.

In the case of “QVQLVESGGGLVQAGGSLRLSCAASGRIFVHNVMGWYRQAPGKERELVAAITVSGGGTYYADSVKGRFTISRDNAKNTVYLQMNSLKQEDTAVYYCNAVPHPYDWGQGTQVTVSS”, the “polyreactivity (PSR sort gate)” value was “low polyreactivity”.

As to “QVQLVESGGGLVQAGGSLRLSCAASGRIFVHYAMGWYRQAPGKERDLVAAISMSGGNTYYADSVKGRFTISRDNEKNTVYLQMNSLKPEDTAVYYCARAPYYVASGHRRVLRPTYEYWGQGTQLTVSS”, the “polyreactivity (PSR sort gate)” value is reported as “low polyreactivity”.

With “QVQLVESGGGLVQAGGSLRLSCAASGRIFVHYASGWYRQAPGKERELVAAISWNGGRTFYADSVKGRFTISRDNAKNTVYLQMNSLKPEDTAVYYCAARSRYSLDYWGQGTQVTVSS”, the “polyreactivity (PSR sort gate)” value is “high polyreactivity”.

Regarding “QVQLVESGGGLVQAGGSLRLSCAASGRIFVHYVMGWYRQAPGKERELVAAISRSGGRTYYADSVKGRFTISRDNAKNTVYLQMNSLKAEDTAVYYCATDASTYKYDYWGQGSQVTVSS”, the “polyreactivity (PSR sort gate)” value was “high polyreactivity”.

With “QVQLVESGGGLVQAGGSLRLSCAASGRIFVHYVMGWYRQAPGKERELVAAITVSGGGTYYADSVKGRFTISRDNAKNTVYLQMNSLKPEDTAVYYCNAVPHPYDWGQGTQVTVSS”, the “polyreactivity (PSR sort gate)” value is listed as “low polyreactivity”.

As for “QVQLVESGGGLVQAGGSLRLSCAASGRIFVINTMGWYRQAPGKERELVAAISRGGSTNYADSVKGRFTISRDNAKNTVYLQMNSLKPEDTAVYDCAATGYILFAGCGYDYWGEGTQVTVSS”, the “polyreactivity (PSR sort gate)” value is recorded as “low polyreactivity”.

The values are drawn from the nanobody polyreactivity screen of Harvey et al. (2022).
